Experimental findings from article PMC6451128, “Structural and functional analysis of the nucleotide and DNA binding activities of the human PIF1 helicase” are described below.

Common to all, as to assay: EMSA; no nucleotide; apparent; 20 mM HEPES-NaOH pH 7.5 (Results say pH 7.2), 135 mM NaCl, 5% glycerol, 1 mM DTT, 1 mg/ml BSA, 20 min at 20 C; 0.4 nM T(35); G4 assay: 0.1 nM G4 DNA, 2% PEG 8000 instead of glycerol, 5 uM T(35) competitor
Background: Mobility shift assays separate free from complexed probe on a gel.

For one data set, the target named is T1, hPIF1HD P291A (human, UniProt Q9H611 206-620, P291A).
T1 sequence: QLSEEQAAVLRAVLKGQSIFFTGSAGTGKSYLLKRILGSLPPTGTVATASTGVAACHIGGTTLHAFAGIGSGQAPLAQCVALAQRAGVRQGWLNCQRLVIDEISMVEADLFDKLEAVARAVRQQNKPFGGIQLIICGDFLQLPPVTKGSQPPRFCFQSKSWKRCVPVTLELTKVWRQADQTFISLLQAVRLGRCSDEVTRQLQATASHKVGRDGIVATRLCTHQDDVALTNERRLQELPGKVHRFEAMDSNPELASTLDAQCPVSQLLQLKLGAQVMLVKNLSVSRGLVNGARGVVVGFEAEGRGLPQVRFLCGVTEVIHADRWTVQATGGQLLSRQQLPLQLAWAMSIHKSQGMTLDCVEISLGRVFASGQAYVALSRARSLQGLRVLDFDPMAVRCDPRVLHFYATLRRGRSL
The conditions noted are these: protein: recombinant; tags: His tag removed, GSRM left; label: 5' 32P (PNK).

In another data set the target is T2, hPIF1HD wild-type (human, UniProt Q9H611 206-620).
T2 sequence: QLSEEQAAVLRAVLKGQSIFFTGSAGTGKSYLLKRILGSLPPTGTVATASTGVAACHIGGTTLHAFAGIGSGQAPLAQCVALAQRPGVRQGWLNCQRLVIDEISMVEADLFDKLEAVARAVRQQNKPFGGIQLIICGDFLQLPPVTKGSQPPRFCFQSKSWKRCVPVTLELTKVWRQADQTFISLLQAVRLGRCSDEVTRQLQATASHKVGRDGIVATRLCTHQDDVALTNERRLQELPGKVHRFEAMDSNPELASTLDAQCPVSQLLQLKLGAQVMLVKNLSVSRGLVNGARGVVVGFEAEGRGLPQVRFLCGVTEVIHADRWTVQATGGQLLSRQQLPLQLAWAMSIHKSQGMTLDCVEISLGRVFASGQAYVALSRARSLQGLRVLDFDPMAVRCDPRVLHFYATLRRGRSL
The conditions noted are these: protein: recombinant; tags: His tag removed by thrombin, GSRM left at N-term; label: 5' 32P (PNK).

A further data set deals with T3, hPIF1HD K414A (human, UniProt Q9H611 206-620, K414A).
T3 sequence: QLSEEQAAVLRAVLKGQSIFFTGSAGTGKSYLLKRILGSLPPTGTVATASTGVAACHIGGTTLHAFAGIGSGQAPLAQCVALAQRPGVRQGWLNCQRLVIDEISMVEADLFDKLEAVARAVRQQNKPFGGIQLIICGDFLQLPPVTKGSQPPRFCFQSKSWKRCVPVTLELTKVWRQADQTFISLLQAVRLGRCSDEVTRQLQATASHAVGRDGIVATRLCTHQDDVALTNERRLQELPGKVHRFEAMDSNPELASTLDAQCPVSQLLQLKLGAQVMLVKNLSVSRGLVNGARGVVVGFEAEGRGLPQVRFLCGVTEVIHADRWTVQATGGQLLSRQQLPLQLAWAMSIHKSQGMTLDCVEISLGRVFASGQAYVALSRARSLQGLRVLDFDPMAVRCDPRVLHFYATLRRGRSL
The conditions noted are these: protein: recombinant; tags: His tag removed, GSRM left; label: 5' 32P (PNK).

A further data set has as its target T4, hPIF1HD E307Q (human, UniProt Q9H611 206-620, E307Q).
T4 sequence: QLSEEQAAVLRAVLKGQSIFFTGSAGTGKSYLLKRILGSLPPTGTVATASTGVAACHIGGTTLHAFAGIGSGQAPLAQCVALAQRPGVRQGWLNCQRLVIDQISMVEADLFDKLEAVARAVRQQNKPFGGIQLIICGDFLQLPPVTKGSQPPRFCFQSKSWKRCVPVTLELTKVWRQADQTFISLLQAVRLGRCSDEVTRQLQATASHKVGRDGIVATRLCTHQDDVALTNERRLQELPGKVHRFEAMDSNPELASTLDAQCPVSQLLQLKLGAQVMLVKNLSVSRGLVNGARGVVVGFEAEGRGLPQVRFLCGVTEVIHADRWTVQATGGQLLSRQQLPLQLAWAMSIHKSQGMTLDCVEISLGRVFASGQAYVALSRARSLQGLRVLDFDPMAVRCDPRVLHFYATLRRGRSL
The following applies: protein: recombinant; tags: His tag removed, GSRM left; label: 5' 32P (PNK).

Take TTTTTTTTTTTTTTTTTTTTTTTTTTTTTTTTTTT (ssDNA) [poly-T(35)]: the Kd with hPIF1HD P291A worked out at 1.9 ± 0.6 nM; with hPIF1HD wild-type, 2.3 ± 0.3 nM; with hPIF1HD K414A, 1.6 ± 0.4 nM; with hPIF1HD E307Q it was 3.6 ± 0.5 nM.
